Experimental data: US6200577A, “Anti-herpesviral agents and assays therefor” (priority 1996, dated 2001)

Target: T1, gB/VP22trunc binding (Human herpesvirus 1, UniProt P10211)
T1 construct: linked residues 798 to 904 of gB to the glutathione-S-transferase (GST) protein expressed by pGex2TNMCR; made in house; host or cells: GST-gB: E. coli DH5alpha; VP22trunc: E. coli BL21(DE3)
Assay: Far Western analysis of peptide inhibition of GST-gB binding to VP22trunc
Set-up: species or system HSV-1
Settings: peptide 250 μg/ml co-incubated with GST-gB 1.2 μg/ml; FIG. 12B
Method: (B) Inhibition of binding of GST-gB (final concentration 1.2 μg/ml)and each of the following peptides at a final concentration of 250 μg/ml: lane 1, no peptide; lane 2, peptide A; lane 3, peptide B; lane 4, peptide C; lane 5, peptide D; lane 6, peptide E; lane 7, peptide F; lane 8, peptide G; lane 9, peptide H; lane 10, peptide I; lane 11, peptide J. Bound GST-gB was detected with anti-GST antibody.
Following electrophoresis, proteins were electrotransferred to either Hybond or ProBlott (Applied Biosystems) membrane and the membrane was incubated in renaturation buffer (50 mM Tris-HCl, pH 8.0, 150 mM NaCl, 10% glycerol, 1 mM DTT) at 4° C. for 5-6 hours.
For membranes probed with GST-gB, blocking was performed overnight in PBSA containing 1% non-fat dried milk and 0.05% Tween 20 at 4° C. Membranes were then washed twice in renaturation buffer (10 min/wash) prior to incubation with fusion protein (final concentration 0.5 μg/ml) in renaturation buffer containing 1% BSA. Incubation was again performed overnight at 4° C. Following washing with renaturation buffer (four times, 10 minutes/wash) and a brief rinse with blocking buffer, the membrane was incubated with anti-GST antibody in PBSA, 1% non-fat dried milk, 0.05% Tween 20 and 1% BSA for 1 hour at ambient temperature. After four washes with PBSA, 0.05% Tween 20 (10 minutes/wash), bound antibody was detected with secondary antibody (goat anti-rabbit IgG, whole molecule; Sigma) conjugated to Horse Radish Peroxidase (HRP) by incubating at room temperature for 45 minutes. Following four further washes with PBSA, 0.05% Tween 20, the secondary antibody was visualised by enhanced chemiluminescence.
Similar to the studies performed with inhibition of binding of VP16 to VP22, peptides A to J, which span residues 18 to 144 of VP22trunc, were used to examine whether gB binding could also be prevented (FIG. 12B).

T1 sequence (P10211 798-904): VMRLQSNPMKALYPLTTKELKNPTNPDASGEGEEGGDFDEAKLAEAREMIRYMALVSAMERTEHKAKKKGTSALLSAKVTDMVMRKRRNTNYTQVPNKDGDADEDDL

Sequence | Inhibition of GST-gB binding to VP22trunc (Far Western)
TPRVAGFNKRVFCAAVGRLA [Peptide D] | completely inhibited binding of gB
CAAVGRLAAMHARMAAVQLW [Peptide E] | completely inhibited binding of gB
